The series “AUC” deals with the molecule itself. The experiment in a line: AUC.
In another series the target is T1, C448Y/E442Q Spastin (human, UniProt Q9UBP0 228-616, E442Q | C448Y).
T1 sequence: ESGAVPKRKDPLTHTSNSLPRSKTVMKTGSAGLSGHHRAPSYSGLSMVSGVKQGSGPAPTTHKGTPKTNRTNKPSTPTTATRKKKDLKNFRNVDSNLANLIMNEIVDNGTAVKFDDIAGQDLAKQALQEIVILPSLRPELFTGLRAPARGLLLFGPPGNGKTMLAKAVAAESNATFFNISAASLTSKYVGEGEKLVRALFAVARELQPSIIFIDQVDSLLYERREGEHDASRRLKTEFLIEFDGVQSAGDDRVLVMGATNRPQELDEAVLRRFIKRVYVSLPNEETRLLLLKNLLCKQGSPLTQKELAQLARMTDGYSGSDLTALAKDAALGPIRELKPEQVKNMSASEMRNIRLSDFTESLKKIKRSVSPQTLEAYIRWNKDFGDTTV
Briefly: pull-down.

The series “SEC” deals with the molecule itself. The experiment in a line: SEC. (In general: In gel filtration, larger molecules generally elute earlier.)

The source of these data is PMC2064084 (The Journal of Cell Biology, 2007).

What is called stoichiometry N is a count of units in the complex or per binding partner.

B1: E442Q Spastin (enzyme)
chain: ESGAVPKRKDPLTHTSNSLPRSKTVMKTGSAGLSGHHRAPSYSGLSMVSGVKQGSGPAPTTHKGTPKTNRTNKPSTPTTATRKKKDLKNFRNVDSNLANLIMNEIVDNGTAVKFDDIAGQDLAKQALQEIVILPSLRPELFTGLRAPARGLLLFGPPGNGKTMLAKAVAAESNATFFNISAASLTSKYVGEGEKLVRALFAVARELQPSIIFIDQVDSLLCERREGEHDASRRLKTEFLIEFDGVQSAGDDRVLVMGATNRPQELDEAVLRRFIKRVYVSLPNEETRLLLLKNLLCKQGSPLTQKELAQLARMTDGYSGSDLTALAKDAALGPIRELKPEQVKNMSASEMRNIRLSDFTESLKKIKRSVSPQTLEAYIRWNKDFGDTTV
Regarding B1, in the series “AUC”, the “stoichiometry N” value is 6.

B2: GST–tubulin tail (GST fused to the C-terminal 104 amino acids of murine α-tubulin), ending in Tyr (domain or fragment)
chain: not shown
In the case of B2, the binding result with C448Y/E442Q Spastin is recorded as “binds”.

B3: R451G/E442Q Spastin (enzyme)
chain: ESGAVPKRKDPLTHTSNSLPRSKTVMKTGSAGLSGHHRAPSYSGLSMVSGVKQGSGPAPTTHKGTPKTNRTNKPSTPTTATRKKKDLKNFRNVDSNLANLIMNEIVDNGTAVKFDDIAGQDLAKQALQEIVILPSLRPELFTGLRAPARGLLLFGPPGNGKTMLAKAVAAESNATFFNISAASLTSKYVGEGEKLVRALFAVARELQPSIIFIDQVDSLLCERGEGEHDASRRLKTEFLIEFDGVQSAGDDRVLVMGATNRPQELDEAVLRRFIKRVYVSLPNEETRLLLLKNLLCKQGSPLTQKELAQLARMTDGYSGSDLTALAKDAALGPIRELKPEQVKNMSASEMRNIRLSDFTESLKKIKRSVSPQTLEAYIRWNKDFGDTTV
For B3, in “SEC”, the binding result is listed as “binds”.

B4: A457E/E442Q Spastin (enzyme)
chain: ESGAVPKRKDPLTHTSNSLPRSKTVMKTGSAGLSGHHRAPSYSGLSMVSGVKQGSGPAPTTHKGTPKTNRTNKPSTPTTATRKKKDLKNFRNVDSNLANLIMNEIVDNGTAVKFDDIAGQDLAKQALQEIVILPSLRPELFTGLRAPARGLLLFGPPGNGKTMLAKAVAAESNATFFNISAASLTSKYVGEGEKLVRALFAVARELQPSIIFIDQVDSLLCERREGEHDESRRLKTEFLIEFDGVQSAGDDRVLVMGATNRPQELDEAVLRRFIKRVYVSLPNEETRLLLLKNLLCKQGSPLTQKELAQLARMTDGYSGSDLTALAKDAALGPIRELKPEQVKNMSASEMRNIRLSDFTESLKKIKRSVSPQTLEAYIRWNKDFGDTTV
Turning to B4, the binding result in “SEC” is given as “binds”.
